Data reported in the supplement of paper PMC9732359.
± gives the uncertainty stated by the source.

Assay: protein stability index of a GFP-peptide fusion (yeast GPS) (PSI 1-4); higher = more stable; sorted into four equal gates, so the index is relative within each strain
In short: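 The protein stability index of a peptide was calculated by multiplying its read frequency in each gate by that gate's number and adding the products. The peptides were tiled 17-residue stretches of yeast proteins, fused downstream of GFP on a Cherry-expressing plasmid and carried in yeast as a pooled library. Mid-log cultures in leucine-free medium were sorted into four equal gates by GFP/Cherry ratio, and each gate's plasmids were PCR-amplified and Illumina-sequenced.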

Sequence	protein stability index (doa10∆)	protein stability index (pdr5∆)	protein stability index (san1∆)	protein stability index (ubr1∆)
LAYSKIVNGQTFSYVDS [YMR129W/POM152]	2.25 ± 0.045	2.64 ± 0.059	2.53 ± 0.054	1.95 ± 0.042
EYKLRSLTLSFIRHVAK [ECM29]	2.49 ± 0.068	2.54 ± 0.062	2.77 ± 0.049	2.81 ± 0.046
ISLIPELSVVLSGIIQD [RRI2]	1.75 ± 0.077	1.76 ± 0.09	1.96 ± 0.12	1.99 ± 0.064
SSEQDYSTLKELLEYSD [YCG1]	2.92 ± 0.082	2.75 ± 0.088	3.15 ± 0.068	3.15 ± 0.086
HKVQTKLTRELEKKFPD [RPS7B]	2.82 ± 0.16	3.07 ± 0.093	3.1 ± 0.058	3.07 ± 0.055
ERSELLRLFNAPDSEYL [SNF2]	3.02 ± 0.044	2.8 ± 0.051	2.87 ± 0.045	2.77 ± 0.045
SSDVDMDDEEWRSKRIE [RPC53]	3.47 ± 0.1	3.17 ± 0.1	3.42 ± 0.053	3.31 ± 0.069
PKDYIKKLLEVHDIFSK [CDC53]	1.46 ± 0.042	2.04 ± 0.06	1.75 ± 0.099	1.66 ± 0.04
TGMSSMSPFLRKVVKPS [SRB4]	2.76 ± 0.075	2.76 ± 0.088	1.97 ± 0.12	2.48 ± 0.049
LLDNEIRIFRSELQRLS [RPT5]	2.4 ± 0.26	–	3.09 ± 0.076	3.03 ± 0.21
LSPPEFLFHAISGREGL [RPO31]	2.17 ± 0.047	1.79 ± 0.053	1.48 ± 0.14	1.63 ± 0.046
TFNNQDKGLLPYAIMET [RPO31]	1.99 ± 0.067	2.46 ± 0.085	1.44 ± 0.075	1.48 ± 0.058
FKKLNSKNMSKSPSLTA [YMR153W/NUP53]	2.21 ± 0.065	2.38 ± 0.048	2.19 ± 0.067	2.13 ± 0.071
IQWYKSLLEKDIDAVNG [ISW2]	2.73 ± 0.085	3.02 ± 0.075	2.81 ± 0.2	2.82 ± 0.055
IAKSQDKKSCSVDDVLS [DPB4]	3.28 ± 0.057	3.15 ± 0.077	3.22 ± 0.055	3.16 ± 0.039
PSANNSSSIKSTGPTGA [RRP4]	3.32 ± 0.038	3.28 ± 0.043	3.349 ± 0.029	3.348 ± 0.032
ENTKDNLVKEKEALQNN [SMC1]	3.51 ± 0.12	3.26 ± 0.13	3.45 ± 0.13	–
ESSNEAKKTIQNPLNKS [SIR4]	3.12 ± 0.071	2.76 ± 0.059	2.95 ± 0.047	3.11 ± 0.05
TMGMRALLKLSVKLKQK [DIS3]	1.28 ± 0.059	1.59 ± 0.063	1.21 ± 0.072	1.33 ± 0.07
HARTAAVTHNLYYDEDI [PUP2]	3.21 ± 0.16	3.22 ± 0.17	2.86 ± 0.23	2.63 ± 0.1
EIQEELERFNKRADISK [SMC1]	–	–	–	3.23 ± 0.18
LKWVAVVPDLGHLNGHT [SSN2]	3.12 ± 0.07	3.13 ± 0.058	3.1 ± 0.048	3.16 ± 0.054
QTDADRVKDPQWLIMLG [RIP1]	3.19 ± 0.16	3.22 ± 0.11	–	2.6 ± 0.12
NCVNDVLEFCKDYEAKT [POP1]	3.2 ± 0.075	3.45 ± 0.083	3.14 ± 0.072	3.32 ± 0.051
NIKNTNEEATPIPSSET [RRP6]	2.61 ± 0.049	2.98 ± 0.052	2.44 ± 0.048	2.67 ± 0.056
EKVFTQGLNILEWLENP [FAS1]	3.18 ± 0.12	2.98 ± 0.081	3.44 ± 0.054	3.17 ± 0.046
NEVIDKLKNENTDLKDI [PCI8]	2.87 ± 0.066	3.04 ± 0.053	3.01 ± 0.048	3.13 ± 0.041

Sequence	protein stability index (doa10∆)	protein stability index (pdr5∆)	protein stability index (san1∆)	protein stability index (ubr1∆)
LADRDEFIQDSAARGLS [ECM29]	1.55 ± 0.092	1.31 ± 0.06	1.2 ± 0.14	2.01 ± 0.064
MTVKLESITYQKIMILQ [RGR1]	2.16 ± 0.071	1.73 ± 0.068	1.6 ± 0.095	2.56 ± 0.076
KYLLTQRVFKPVDITMM [PRP8]	2.98 ± 0.081	2.99 ± 0.11	3.02 ± 0.079	2.31 ± 0.1
PNALKPLSESLRLVDDD [RRP6]	3.15 ± 0.091	3.34 ± 0.081	2.82 ± 0.093	3.23 ± 0.055
ADNDGPRINNISAEDRA [SNF2]	2.79 ± 0.15	3.16 ± 0.18	2.9 ± 0.1	1.52 ± 0.24
DDYYKEIIGGGSKSASK [ISW2]	2.37 ± 0.12	3.09 ± 0.11	3 ± 0.09	2.69 ± 0.086
KNVRTRIKLATTSERVS [RRI1]	2.6 ± 0.058	2.56 ± 0.058	2.8 ± 0.086	2.36 ± 0.074
ISNGTINIQKKLEPKEI [SIR4]	2.77 ± 0.079	2.89 ± 0.075	2.37 ± 0.089	3 ± 0.1
QIQQQQQKQQQQQQQHQ [SNF5]	2.53 ± 0.12	2.97 ± 0.14	2.93 ± 0.12	2.61 ± 0.22
KMNNKPERFMVFQLPTR [RPC53]	2.38 ± 0.063	2.75 ± 0.056	2.65 ± 0.085	2.83 ± 0.058
SSTGVPESIDTILSSKL [SRB2]	2.62 ± 0.19	2.92 ± 0.13	2.93 ± 0.075	3.04 ± 0.075
INQIFSPEEQRSLLQEA [GAL11]	2.95 ± 0.12	3.07 ± 0.063	3.53 ± 0.11	3.03 ± 0.1
KRAASVARHIYMRKQVG [RPS19A]	1.7 ± 0.2	–	1.88 ± 0.28	–
DQLSTISMILRNISFSD [SWI1]	1.85 ± 0.052	2.44 ± 0.072	2.04 ± 0.069	2.31 ± 0.051
ISNLTQEQVQDYVNKTN [FAS1]	2.34 ± 0.047	2.81 ± 0.043	2.82 ± 0.057	2.27 ± 0.033
FVKPGTALDAEGAARGT [DIS3]	3.1 ± 0.13	3.4 ± 0.2	3.24 ± 0.095	3.15 ± 0.097
NDENDDEFYINVDKNLN [RPN14]	2.96 ± 0.19	2.72 ± 0.12	2.94 ± 0.11	3.05 ± 0.12
TGAGAFGTGQSTFGFNN [YJL041W/NSP1]	2.72 ± 0.055	2.57 ± 0.064	3.02 ± 0.058	2.85 ± 0.046
TSEMKVLSIPPANHLQS [YGL100W/SEH1]	2.64 ± 0.067	2.15 ± 0.076	2.39 ± 0.081	2.56 ± 0.05
MLMPKQERNKIHQYLFQ [RPS10B]	2.76 ± 0.29	2.88 ± 0.17	2.89 ± 0.14	2.78 ± 0.1
LYQSLTPQQLQMIQQRH [SNF5]	1.77 ± 0.037	2.24 ± 0.04	1.69 ± 0.053	2.08 ± 0.033
KTCIQGINSPLSSVALR [YJL039C/NUP192]	–	1.41 ± 0.25	–	–
LIKAKNFLVFQGDVEQI [SMC1]	2.63 ± 0.19	3.15 ± 0.12	2.41 ± 0.17	2.76 ± 0.23
IFLAERRILPKPSRTSR [RPS7A]	–	3.15 ± 0.21	2.8 ± 0.14	2.89 ± 0.13
FVNETPRVIEPVYTAQW [PRP8]	1.57 ± 0.16	2.31 ± 0.15	2.19 ± 0.16	1.19 ± 0.1
KDHDLKIPLPEVHDLIG [POP1]	3.11 ± 0.12	2.91 ± 0.14	2.73 ± 0.21	2.54 ± 0.11
PPSKHSTLTLSDSEDSD [ESC2]	3.01 ± 0.15	2.82 ± 0.14	2.59 ± 0.071	2.64 ± 0.19
